Experimental data from patent publication US20250145711A1 (Janssen / Centocor, published 2025).

Columns and labels:
[1] = molecular target: T1, human PSMA on prostate cancer cell lines (22RV1, C4-2B) (human, UniProt Q04609 1-750); test: flow cytometry on 22RV1 cells; 22RV1 cells
T1 construct: also called PSMA-expressing cell lines
Method: (§1) 22RV1 and C4-2B cells were plated at 50,000 cells per well in 50 μl of assay medium (RPMI, 10% HI FBS) in V bottom plates. Serial dilutions of antibodies were prepared in assay medium with 50 μl of antibody dilutions added to the plates containing cells. The plates were incubated for 60 min at 37° C. at which time 100 μl of staining buffer (Becton Dickinson Cat #554657) was added to all wells of each plate. The plates were centrifuged at 300×G for 5 minutes and the medium was removed from the wells. 200 μl of staining buffer was added to all wells of each plate. The plates were centrifuged at 300× G for 5 minutes and the medium was removed from the wells. 50 μl of 2 μg/ml AlexaFluor647-labeled goat anti-human Fc was added to all wells of the plates and the plates were incubated for 30 minutes at 4° C. 150 μl of staining buffer was added to all wells of each plate. The plates were centrifuged at 300× G for 5 minutes and the medium was removed from the wells.

[2] = molecular target: T1, human PSMA on prostate cancer cell …; test: flow cytometry on C4-2B cells
Method: as §1

T1 sequence (Q04609 whole entry): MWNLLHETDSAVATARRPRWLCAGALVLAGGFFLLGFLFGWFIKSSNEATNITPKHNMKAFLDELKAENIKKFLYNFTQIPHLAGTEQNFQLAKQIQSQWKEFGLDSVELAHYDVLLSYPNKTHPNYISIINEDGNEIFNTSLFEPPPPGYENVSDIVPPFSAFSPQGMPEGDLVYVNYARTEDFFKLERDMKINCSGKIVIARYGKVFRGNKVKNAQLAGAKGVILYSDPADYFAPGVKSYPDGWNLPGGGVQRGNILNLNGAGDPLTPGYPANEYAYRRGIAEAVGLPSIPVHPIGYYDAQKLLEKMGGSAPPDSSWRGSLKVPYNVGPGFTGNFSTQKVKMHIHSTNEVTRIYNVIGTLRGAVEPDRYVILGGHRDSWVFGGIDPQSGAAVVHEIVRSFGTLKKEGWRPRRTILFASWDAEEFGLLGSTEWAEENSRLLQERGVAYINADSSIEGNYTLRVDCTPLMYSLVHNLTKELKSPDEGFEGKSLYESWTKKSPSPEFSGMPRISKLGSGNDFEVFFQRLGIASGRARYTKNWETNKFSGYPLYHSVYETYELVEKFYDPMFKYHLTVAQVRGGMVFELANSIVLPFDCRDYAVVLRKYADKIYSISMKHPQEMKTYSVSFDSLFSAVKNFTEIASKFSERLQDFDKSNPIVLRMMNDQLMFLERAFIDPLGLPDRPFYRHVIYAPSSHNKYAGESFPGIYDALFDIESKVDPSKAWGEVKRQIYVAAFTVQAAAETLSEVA

B1: PS3B918 (bispecific antibody, human IgG1, lambda, L234A L235A)
heavy 1: QVQLQQSGPRLVRPSQTLSLTCAISGDSVFNNNAAWSWIRQSPSRGLEWLGRTYYRSKWLYDYAVSVKSRITVNPDTSRNQFTLQLNSVTPEDTALYYCARGYSSSFDYWGQGTLVTVSSASTKGPSVFPLAPSSKSTSGGTAALGCLVKDYFPEPVTVSWNSGALTSGVHTFPAVLQSSGLYSLSSVVTVPSSSLGTQTYICNVNHKPSNTKVDKKVEPKSCDKTHTCPPCPAPEAAGGPSVFLFPPKPKDTLMISRTPEVTCVVVSVSHEDPEVKFNWYVDGVEVHNAKTKPREEQYNSTYRVVSVLTVLHQDWLNGKEYKCKVSNKALPAPIEKTISKAKGQPREPQVYTLPPSREEMTKNQVSLTCLVKGFYPSDIAVEWESNGQPENNYKTTPPVLDSDGSFLLYSKLTVDKSRWQQGNVFSCSVMHEALHNHYTQKSLSLSPG
light 1: QSALTQPASVSGSPGQSITISCTGTSSNIGTYKFVSWYQQHPDKAPKVLLYEVSKRPSGVSSRFSGSKSGNTASLTISGLQAEDQADYHCVSYAGSGTLLFGGGTKLTVLGQPKAAPSVTLFPPSSEELQANKATLVCLISDFYPGAVTVAWKADSSPVKAGVETTTPSKQSNNKYAASSYLSLTPEQWKSHRSYSCQVTHEGSTVEKTVAPTECS
heavy 2: EVQLVESGGGLVKPGGSLRLSCAASGFTFSRYNMNWVRQAPGKGLEWVSSINSNSRYIYYADSVKGRFTISRDSAKNSLYLQMNSLRAEDTAVYYCAKTMGDYYYYYGMDVWGQGTTVTVSSASTKGPSVFPLAPSSKSTSGGTAALGCLVKDYFPEPVTVSWNSGALTSGVHTFPAVLQSSGLYSLSSVVTVPSSSLGTQTYICNVNHKPSNTKVDKKVEPKSCDKTHTCPPCPAPEAAGGPSVFLFPPKPKDTLMISRTPEVTCVVVSVSHEDPEVKFNWYVDGVEVHNAKTKPREEQYNSTYRVVSVLTVLHQDWLNGKEYKCKVSNKALPAPIEKTISKAKGQPREPQVYTLPPSREEMTKNQVSLTCLVKGFYPSDIAVEWESNGQPENNYKTTPPVLDSDGSFFLYSRLTVDKSRWQQGNVFSCSVMHEALHNHYTQKSLSLSPG
light 2: SSELTQPPSVSGAPGQRVTISCAGSLSNIGAGYDVHWYQQLPGTAPKLLIYGNINRLSGVPERFSGSKSGTSASLAITGLQAEDGADYYCQSYDSSLSSYVFGTGTKVTVLGQPKAAPSVTLFPPSSEELQANKATLVCLISDFYPGAVTVAWKADSSPVKAGVETTTPSKQSNNKYAASSYLSLTPEQWKSHRSYSCQVTHEGSTVEKTVAPTECS
notes: FAB-A: CD3B891 (CD3B376 - K477); FAB-B: PSMB890
For B1, the EC50 [1] was at least 60 nM and the EC50 [2] was 60 nM.
